Assay results taken from the supplement of paper PMC9112550, “Optimization of the antimicrobial peptide Bac7 by deep mutational scanning” (BMC Biology, 2022).

Each sequence was assayed on Escherichia coli TOP10 (assay: shrunken log2 fold change of peptide-encoding DNA abundance (4.5 h post-induction vs induction); higher = less antimicrobial activity (less host growth inhibition)). Settings: time post-induction: 4.5 h; library: site-saturation at positions 5, 18, 19, 20.
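Note: peptides expressed intracellularly from a pBAD plasmid library in pooled LB shake-flask culture, induced with 0.3% L-arabinose, DNA abundance read by NGS, three biological replicates, DESeq2 with apeglm shrinkage.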

In order of rising “shrunken log2 fold change” value:
1. RRIRYRPPRLPRPRPRPNHKPRP  -1.3
2. RRIRHRPPRLPRPRPRPNMIPRP  -0.928
3. RRIRIRPPRLPRPRPRPPNYPRP  -0.923
4. RRIRNRPPRLPRPRPRPKFYPRP  -0.83
5. RRIRIRPPRLPRPRPRPCLEPRP  -0.808
6. RRIRTRPPRLPRPRPRPQNKPRP  -0.664
7. RRIRCRPPRLPRPRPRPEFIPRP  -0.551
8. RRIRYRPPRLPRPRPRPCTEPRP  -0.531
9. RRIRVRPPRLPRPRPRPNSKPRP  -0.506
10. RRIRRRPPRLPRPRPRPYNMPRP  -0.499
11. RRIRCRPPRLPRPRPRPSEYPRP  -0.497
12. RRIRMRPPRLPRPRPRPIIMPRP  -0.46
13. RRIRIRPPRLPRPRPRPHSTPRP  -0.428
14. RRIRFRPPRLPRPRPRPHLIPRP  -0.415
15. RRIRSRPPRLPRPRPRPSNKPRP  -0.413
16. RRIRTRPPRLPRPRPRPFPEPRP  -0.41
17. RRIRVRPPRLPRPRPRPHCDPRP  -0.401
18. RRIRTRPPRLPRPRPRPVCLPRP  -0.398
19. RRIRCRPPRLPRPRPRPVLNPRP  -0.396
20. RRIRCRPPRLPRPRPRPLVLPRP  -0.378
21. RRIRIRPPRLPRPRPRPCQPPRP  -0.378
22. RRIRFRPPRLPRPRPRPHRHPRP  -0.333
23. RRIRVRPPRLPRPRPRPAYHPRP  -0.316
24. RRIRCRPPRLPRPRPRPVICPRP  -0.241
25. RRIRRRPPRLPRPRPRPCPNPRP  -0.207
26. RRIRRRPPRLPRPRPRPSNWPRP  -0.192
27. RRIRTRPPRLPRPRPRPPYRPRP  -0.187
28. RRIRYRPPRLPRPRPRPEIAPRP  -0.185
29. RRIRIRPPRLPRPRPRPEIQPRP  -0.171
30. RRIRDRPPRLPRPRPRPMTSPRP  -0.169
31. RRIRFRPPRLPRPRPRPFMWPRP  -0.168
32. RRIRIRPPRLPRPRPRPIWFPRP  -0.164
33. RRIRLRPPRLPRPRPRPGCNPRP  -0.162
34. RRIRQRPPRLPRPRPRPEIAPRP  -0.151
35. RRIRERPPRLPRPRPRPPTMPRP  -0.151
36. RRIRFRPPRLPRPRPRPEYAPRP  -0.14
37. RRIRRRPPRLPRPRPRPQESPRP  -0.131
38. RRIRARPPRLPRPRPRPANHPRP  -0.129
39. RRIRWRPPRLPRPRPRPGTYPRP  -0.127
40. RRIRPRPPRLPRPRPRPHQNPRP  -0.124
41. RRIRMRPPRLPRPRPRPYRPPRP  -0.117
42. RRIRYRPPRLPRPRPRPNDWPRP  -0.116
43. RRIRFRPPRLPRPRPRPCHCPRP  -0.0994
44. RRIRDRPPRLPRPRPRPVQYPRP  -0.0992
45. RRIRYRPPRLPRPRPRPPWMPRP  -0.0946
46. RRIRYRPPRLPRPRPRPTHLPRP  -0.0864
47. RRIRIRPPRLPRPRPRPNEKPRP  -0.0849
48. RRIRWRPPRLPRPRPRPPNYPRP  -0.0821
49. RRIRKRPPRLPRPRPRPEIQPRP  -0.0762
50. RRIRPRPPRLPRPRPRPTTLPRP  -0.0741
51. RRIRIRPPRLPRPRPRPPKAPRP  -0.0729
52. RRIRVRPPRLPRPRPRPFDCPRP  -0.0718
53. RRIRRRPPRLPRPRPRPHWSPRP  -0.0676
54. RRIRIRPPRLPRPRPRPDRDPRP  -0.0646
55. RRIRPRPPRLPRPRPRPWLQPRP  -0.064
56. RRIRNRPPRLPRPRPRPEMTPRP  -0.059
57. RRIRKRPPRLPRPRPRPVYAPRP  -0.0576
58. RRIRLRPPRLPRPRPRPLWQPRP  -0.0523
59. RRIRVRPPRLPRPRPRPRDTPRP  -0.0483
60. RRIRLRPPRLPRPRPRPCERPRP  -0.0471
61. RRIRGRPPRLPRPRPRPMPNPRP  -0.0294
62. RRIRCRPPRLPRPRPRPMHSPRP  -0.0254
63. RRIRKRPPRLPRPRPRPDYPPRP  -0.0226
64. RRIRKRPPRLPRPRPRPWHQPRP  -0.0165
65. RRIRQRPPRLPRPRPRPCQEPRP  -0.015
66. RRIRHRPPRLPRPRPRPYQLPRP  -0.0135
67. RRIRVRPPRLPRPRPRPNHMPRP  -0.0124
68. RRIRYRPPRLPRPRPRPKDVPRP  -0.0107
69. RRIRRRPPRLPRPRPRPLAYPRP  -0.00715
70. RRIRQRPPRLPRPRPRPYDVPRP  -0.00663
71. RRIRGRPPRLPRPRPRPNKEPRP  -0.00663
72. RRIRHRPPRLPRPRPRPMSLPRP  -0.00613
73. RRIRNRPPRLPRPRPRPHMRPRP  -0.00174
74. RRIRARPPRLPRPRPRPCYWPRP  -0.000727
75. RRIRKRPPRLPRPRPRPWLYPRP  0.00941
76. RRIRDRPPRLPRPRPRPMELPRP  0.0119
77. RRIRNRPPRLPRPRPRPQDMPRP  0.0124
78. RRIRHRPPRLPRPRPRPGELPRP  0.0143
79. RRIRYRPPRLPRPRPRPEVGPRP  0.0159
80. RRIRKRPPRLPRPRPRPQMGPRP  0.0203
81. RRIRVRPPRLPRPRPRPEMTPRP  0.0232
82. RRIRLRPPRLPRPRPRPQQQPRP  0.0294
83. RRIRTRPPRLPRPRPRPVWTPRP  0.03
84. RRIRRRPPRLPRPRPRPGNQPRP  0.0401
85. RRIRNRPPRLPRPRPRPAFRPRP  0.0513
86. RRIRDRPPRLPRPRPRPMGQPRP  0.0515
87. RRIRLRPPRLPRPRPRPNRYPRP  0.0611
88. RRIRSRPPRLPRPRPRPGGSPRP  0.0707
89. RRIRKRPPRLPRPRPRPHFQPRP  0.0821
90. RRIRTRPPRLPRPRPRPAISPRP  0.09
91. RRIRLRPPRLPRPRPRPVACPRP  0.0944
92. RRIRMRPPRLPRPRPRPAEMPRP  0.0981
93. RRIRARPPRLPRPRPRPGKCPRP  0.0981
94. RRIRKRPPRLPRPRPRPIMPPRP  0.099
95. RRIRSRPPRLPRPRPRPRWHPRP  0.111
96. RRIRQRPPRLPRPRPRPAMGPRP  0.127
97. RRIRNRPPRLPRPRPRPAPDPRP  0.147
98. RRIRFRPPRLPRPRPRPECGPRP  0.175
99. RRIRVRPPRLPRPRPRPPDLPRP  0.195
100. RRIRDRPPRLPRPRPRPKSLPRP  0.196
101. RRIRGRPPRLPRPRPRPKVIPRP  0.197
102. RRIRVRPPRLPRPRPRPRVVPRP  0.2
103. RRIRIRPPRLPRPRPRPGKPPRP  0.217
104. RRIRMRPPRLPRPRPRPHGHPRP  0.256
105. RRIRERPPRLPRPRPRPSPRPRP  0.265
106. RRIRFRPPRLPRPRPRPREMPRP  0.286
107. RRIRPRPPRLPRPRPRPGVPPRP  0.301
108. RRIRNRPPRLPRPRPRPPWPPRP  0.387
109. RRIRGRPPRLPRPRPRPVDAPRP  0.395
110. RRIRDRPPRLPRPRPRPENDPRP  0.41
111. RRIRWRPPRLPRPRPRPGPVPRP  0.423
112. RRIRNRPPRLPRPRPRPRGGPRP  0.474
113. RRIRKRPPRLPRPRPRPATEPRP  0.486
114. RRIRWRPPRLPRPRPRPVPTPRP  0.544
115. RRIRWRPPRLPRPRPRPPQRPRP  0.548
116. RRIRWRPPRLPRPRPRPKHTPRP  0.578
117. RRIRWRPPRLPRPRPRPQPIPRP  0.813
118. RRIRGRPPRLPRPRPRPTHTPRP  0.862
119. RRIRNRPPRLPRPRPRPRMRPRP  0.867
120. RRIRGRPPRLPRPRPRPMWRPRP  0.899
121. RRIRPRPPRLPRPRPRPGSWPRP  0.941
122. RRIRGRPPRLPRPRPRPAACPRP  1.15
123. RRIRRRPPRLPRPRPRPSAFPRP  1.27
124. RRIRHRPPRLPRPRPRPPASPRP  1.36
125. RRIRMRPPRLPRPRPRPGPKPRP  1.81
